Results on nine molecules are retold here after patent US20250145673A1 (AFFILOGIC, published 2025).

In assay [1] the target is T1, complement component 3 (C3) (UniProt P01024 23-1663).
T1 construct: Purified bought protein; native C3 is a disulfide-linked two-chain protein made from one precursor
The experiment in a line: SPR, single cycle kinetics, 1:1 Langmuir fit; text says C3 (Cat #A113c) was immobilised, the column's head prints 'Binding to C3b'. Here is the method: C3 binding, VEGF binding, HSA binding, and equilibrium dissociation constant (KD) measurements were determined by Surface Plasmon Resonance (SPR) using the Sierra SPR-23 instrument. C3 protein was obtained from Complement Technology, Inc. (Cat #A113c). VEGF protein was obtained from Sino Biologicals, Inc. HSA protein was obtained from Sigma-Aldrich, Inc. (Cat #A3782). The Fab fusion proteins described in Example 8 were stored each at 1 mg/mL in PBST, pH 7.4.
(§1) In summary, ligands were immobilized under the following conditions: 25° C. on a Sierra Sensors HCA (CM5), Running Buffer of PBST (10 mM Phosphate Buffer pH 7.4, 150 mM NaCl, 0.05% Tween-20; pH 7.4), amine coupling Immobilization Buffer of 10 mM NaOAc pH 5.0, activation with EDC/NHS 7 minutes, immobilization for 2 minutes, and blocking with 1 M ethanolamine for 7 minutes.
(§2) An 8-point, 3-fold serial dilution assay was performed in duplicate for the Fab fusion proteins described in Example 8 starting at 100 nM. Sensorgrams were analyzed using Sierra Sensors Analyzer with a double reference to determine the interaction parameters ka, kd, and KD. The reference channel was first subtracted from the ligand channel as the first reference. The internal blank injections were set to closest blank after injection based on the method. The kd was calculated for the top concentration by fitting the off-rate part of the curve. The kd was then set to global constant for fitting rest of the curves. Rmax was fit locally for each individual curve since the number of available binding sites changed after each injection. Binding data was fit to a 1:1 Langmuir model.
A general note: In SPR one partner is held on a chip, and binding of the other changes the refractive index at the surface.

The target in assay [2] is T1, complement component 3 (C3). Kind of assay: cell-based or functional assay.
The target of assay [3] is human serum albumin (HSA) (human, UniProt P02768 25-609). The experiment in a line: SPR, HSA amine-coupled to chip, single cycle kinetics, 1:1 Langmuir fit. Here is the method:
C3, VEGF, and HSA were placed onto Spots B, C, and D, respectively, across all 8 channels to test for the binding of the supplied analytes. Spot A was used as a reference spot. The conditioned biosensor chip was chemically activated with EDC/NHS. Ligands were then injected onto the activated surface to allow for immobilization. After immobilization, 1 M ethanolamine was injected to block any remaining reactive carboxyl groups in the carboxymethylated dextran surface.
as §1, §2

The target in assay [4] is T1, complement component 3 (C3). The experiment in a line: SPR, target amine-coupled to chip, single cycle kinetics, 1:1 Langmuir fit. On the procedure: In summary, ligands were immobilized under the following conditions: 25° C. on a Sierra Sensors HCA (CM5), Running Buffer of PBST (10 mM Phosphate Buffer pH 7.4, 150 mM NaCl, 0.05% Tween-20; pH 7.4), amine coupling Immobilization Buffer of 10 mM NaOAc pH 4.0, activation with EDC/NHS 6 minutes, immobilization for 1 minute, and blocking with 1 M ethanolamine.
An 8-point, 3-fold serial dilution assay was performed in duplicate for the polypeptides described in Example 1 starting at either 20 nM, 50 nM, or 200 nM.
as §2, with “Sensorgrams” for “An 8-point, 3-fold serial dilution assay was performed in duplicate for the Fab fusion proteins described in Example 8 starting at 100 nM. Sensorgrams”, “Analyzer software version 3.1.33” for “Analyzer”

Assay [5] shares this target. Kind of assay: cell-based or functional assay. This is another data set of the same source.
For assay [6] the target is unchanged. Kind of assay: ITC, binder titrated into target. (In general: ITC needs no label: the signal is the heat of the interaction.)
Assay [7] has the same target. Kind of assay: ITC.
Assay [8] has the same target. The experiment in a line: ITC, polypeptide titrated into C3; fit box in the lower panel.
The target is the same in assay [9]. The description is as above. The source holds these as a separate data set.
The target is the same in assay [10]. The experiment in a line: ITC; ITC, not SPR.

Numbering of substitutions follows the chain as printed. Like-named read-outs stand apart in the source and are kept apart here.

Chain of human serum albumin (HSA) (P02768 25-609 limits assumed): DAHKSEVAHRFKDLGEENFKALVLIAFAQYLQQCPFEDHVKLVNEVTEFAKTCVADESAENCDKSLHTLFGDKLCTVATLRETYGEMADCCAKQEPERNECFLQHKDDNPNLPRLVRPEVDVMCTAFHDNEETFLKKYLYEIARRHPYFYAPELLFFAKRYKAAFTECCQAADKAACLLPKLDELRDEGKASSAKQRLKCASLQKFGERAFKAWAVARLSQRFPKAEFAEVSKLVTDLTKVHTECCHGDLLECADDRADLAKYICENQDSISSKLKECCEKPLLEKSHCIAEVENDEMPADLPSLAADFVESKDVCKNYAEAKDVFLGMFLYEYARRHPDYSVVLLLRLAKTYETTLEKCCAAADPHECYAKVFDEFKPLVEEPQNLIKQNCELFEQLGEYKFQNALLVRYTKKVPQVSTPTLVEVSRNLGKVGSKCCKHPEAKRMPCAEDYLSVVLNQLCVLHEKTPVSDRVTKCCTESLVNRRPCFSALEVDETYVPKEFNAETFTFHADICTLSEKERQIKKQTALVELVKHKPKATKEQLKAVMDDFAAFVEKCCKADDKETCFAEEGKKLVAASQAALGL
T1 sequence (P01024 23-1663 limits assumed): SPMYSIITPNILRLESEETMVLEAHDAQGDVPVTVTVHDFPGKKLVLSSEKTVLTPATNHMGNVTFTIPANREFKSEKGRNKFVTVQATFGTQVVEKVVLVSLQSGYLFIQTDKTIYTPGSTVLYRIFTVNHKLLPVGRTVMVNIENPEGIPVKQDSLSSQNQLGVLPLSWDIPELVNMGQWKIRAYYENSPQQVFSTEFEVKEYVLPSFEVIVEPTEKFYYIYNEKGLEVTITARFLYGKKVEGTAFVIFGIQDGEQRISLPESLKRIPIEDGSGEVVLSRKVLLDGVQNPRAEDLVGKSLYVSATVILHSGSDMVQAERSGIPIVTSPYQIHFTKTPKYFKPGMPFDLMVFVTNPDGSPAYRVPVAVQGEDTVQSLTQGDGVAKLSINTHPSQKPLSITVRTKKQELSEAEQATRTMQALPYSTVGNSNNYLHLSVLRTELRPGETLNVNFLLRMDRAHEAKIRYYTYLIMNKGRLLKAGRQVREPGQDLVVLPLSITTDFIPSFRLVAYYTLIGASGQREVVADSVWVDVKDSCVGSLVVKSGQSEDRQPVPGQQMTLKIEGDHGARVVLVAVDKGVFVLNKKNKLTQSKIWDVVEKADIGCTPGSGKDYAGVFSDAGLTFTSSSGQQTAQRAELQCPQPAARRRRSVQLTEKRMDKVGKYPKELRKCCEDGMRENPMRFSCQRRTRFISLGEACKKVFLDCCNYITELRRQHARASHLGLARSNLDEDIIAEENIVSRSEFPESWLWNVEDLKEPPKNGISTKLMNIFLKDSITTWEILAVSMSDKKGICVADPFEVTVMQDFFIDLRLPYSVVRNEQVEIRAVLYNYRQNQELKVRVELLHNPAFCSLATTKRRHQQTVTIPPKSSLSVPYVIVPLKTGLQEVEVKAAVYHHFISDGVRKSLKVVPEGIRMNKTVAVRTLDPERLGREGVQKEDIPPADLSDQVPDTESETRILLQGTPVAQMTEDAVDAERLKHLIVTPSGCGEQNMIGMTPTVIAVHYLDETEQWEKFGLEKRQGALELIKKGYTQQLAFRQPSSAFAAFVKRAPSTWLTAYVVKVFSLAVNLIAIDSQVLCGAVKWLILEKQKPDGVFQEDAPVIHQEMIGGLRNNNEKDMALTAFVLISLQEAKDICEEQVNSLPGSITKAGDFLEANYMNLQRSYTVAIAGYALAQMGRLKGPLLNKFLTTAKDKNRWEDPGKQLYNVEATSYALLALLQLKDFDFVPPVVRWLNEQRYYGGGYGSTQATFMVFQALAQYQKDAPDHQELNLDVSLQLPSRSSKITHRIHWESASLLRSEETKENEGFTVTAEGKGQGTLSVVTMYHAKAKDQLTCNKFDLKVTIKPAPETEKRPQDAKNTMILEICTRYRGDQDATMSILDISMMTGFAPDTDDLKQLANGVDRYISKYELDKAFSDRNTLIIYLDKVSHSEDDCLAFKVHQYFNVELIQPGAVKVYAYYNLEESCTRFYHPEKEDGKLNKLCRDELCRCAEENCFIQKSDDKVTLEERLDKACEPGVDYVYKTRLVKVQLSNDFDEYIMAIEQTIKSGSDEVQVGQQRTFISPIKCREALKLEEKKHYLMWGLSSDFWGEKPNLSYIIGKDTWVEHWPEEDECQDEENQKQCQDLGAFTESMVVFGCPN

B1: Fab NF-I (Fab fusion protein comprising SEQ ID NO: 36 and SEQ ID NO: 60) (other)
heavy: EVQLVESGGGLVQPGGSLRLSCAASGYDFTHYGMNWVRQAPGKGLEWVGWINTYTGEPTYAADFKRRFTFSLDTSKSTAYLQMNSLRAEDTAVYYCAKYPYYYGTSHWYFDVWGQGTLVTVSSASTKGPSVFPLAPSSKSTSGGTAALGCLVKDYFPEPVTVSWNSGALTSGVHTFPAVLQSSGLYSLSSVVTVPSSSLGTQTYICNVNHKPSNTKVDKKVEPKSCDKTHL
light: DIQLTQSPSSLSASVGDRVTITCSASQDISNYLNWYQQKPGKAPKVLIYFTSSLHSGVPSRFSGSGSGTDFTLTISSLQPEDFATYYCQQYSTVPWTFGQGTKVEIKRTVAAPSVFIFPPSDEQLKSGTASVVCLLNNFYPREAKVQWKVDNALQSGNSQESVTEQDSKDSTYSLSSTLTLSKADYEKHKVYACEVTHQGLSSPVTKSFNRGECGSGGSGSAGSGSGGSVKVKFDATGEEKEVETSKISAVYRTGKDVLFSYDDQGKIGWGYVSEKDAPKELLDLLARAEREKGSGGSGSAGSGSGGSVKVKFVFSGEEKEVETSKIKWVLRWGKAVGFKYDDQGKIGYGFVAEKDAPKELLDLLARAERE
With B1, in [1], the Kd (in general, the free concentration of one partner at which half of the binding sites on the other are occupied at equilibrium, for simple one-to-one binding) was found to be 0.00142 µM. Also, in [2], the “IC50 (nM) Alternative Pathway (Wieslab® assay)” value (“IC50 (nM) Alternative Pathway” below) amounted to 170 nM and the “IC50 (nM) Classical Pathway (Wieslab® assay)” value (shortened to “IC50 (nM) Classical Pathway”) was determined as 63 nM. Moreover, binding in [3] was put at a Kd of 0.0089 µM.

B2: polypeptide comprising the amino acid sequence of SEQ ID NO: 33 (designed binder)
chain: MVKVKFAATGEEKEVETSKIANVYRVGKDVLFSYDDQGKIGWGYVSEKDAPKELLDLLARAEREK
Consider B2, for which the Kd in assay [4] was 0.00022 µM. In [5], the “IC50 (nM) Alternative (ELISA-based complement activation assay)” value is 447 nM and the “IC50 (nM) Classical (ELISA-based complement activation assay)” value amounted to 63 nM. Moreover, in assay [6], the “-TΔS” value was determined as 27.6 kJ/mol; the affinity, expressed as Kd, was 0.0019 µM; the N turned out to be 0.94; the ΔG was -49.8 kJ/mol. In assay [6], this molecule yielded a ΔH of -77.4 kJ/mol. The Kd in [7] is 0.0019 µM. In assay [8], this molecule gave a Ka of 5.36e+08 M⁻¹.

B3: polypeptide comprising the amino acid sequence of SEQ ID NO: 34 (designed binder)
chain: B2 chain with A7D, A21S, N22A, V26T
Consider B3, for which, in [4], the Kd worked out at 0.00066 µM. For the same molecule, in [5], the “IC50 (nM) Alternative (ELISA-based complement activation assay)” value amounted to 286 nM and the “IC50 (nM) Classical (ELISA-based complement activation assay)” value is 79 nM. Moreover, in assay [6], the “-TΔS” value amounted to 69.9 kJ/mol; the affinity, expressed as Kd, was 0.0013 µM; the N was determined as 0.85; the ΔG was -50.6 kJ/mol. This molecule also registered a ΔH in assay [6] of -120 kJ/mol. The same molecule gave a Kd in assay [7] of 0.0013 µM.

B4: Fab NF-G (Fab fusion protein comprising SEQ ID NO: 61 and SEQ ID NO: 60) (other)
heavy: EVQLVESGGGLVQPGGSLRLSCAASGYDFTHYGMNWVRQAPGKGLEWVGWINTYTGEPTYAADFKRRFTFSLDTSKSTAYLQMNSLRAEDTAVYYCAKYPYYYGTSHWYFDVWGQGTLVTVSSASTKGPSVFPLAPSSKSTSGGTAALGCLVKDYFPEPVTVSWNSGALTSGVHTFPAVLQSSGLYSLSSVVTVPSSSLGTQTYICNVNHKPSNTKVDKKVEPKSCDKTHLGSGGSGSAGSGSGGSVKVKFDATGEEKEVETSKISAVYRTGKDVLFSYDDQGKIGWGYVSEKDAPKELLDLLARAEREKGSGGSGSAGSGSGGSVKVKFVFSGEEKEVETSKIKWVLRWGKAVGFKYDDQGKIGYGFVAEKDAPKELLDLLARAERE
light: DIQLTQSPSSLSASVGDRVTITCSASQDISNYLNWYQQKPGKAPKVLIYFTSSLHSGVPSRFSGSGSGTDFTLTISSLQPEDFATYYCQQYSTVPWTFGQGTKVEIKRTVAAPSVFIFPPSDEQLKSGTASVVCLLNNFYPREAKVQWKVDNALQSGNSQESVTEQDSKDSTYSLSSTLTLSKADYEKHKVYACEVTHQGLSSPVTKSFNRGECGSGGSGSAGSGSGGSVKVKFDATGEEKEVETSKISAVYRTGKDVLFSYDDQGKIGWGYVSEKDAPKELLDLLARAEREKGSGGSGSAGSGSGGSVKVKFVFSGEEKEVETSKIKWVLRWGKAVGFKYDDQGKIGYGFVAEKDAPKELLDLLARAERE
For the molecule B4, the Kd was 0.00021 µM in [1] and 0.0169 µM in [3].

B5: polypeptide having the amino acid sequence of SEQ ID NO: 27 (designed binder)
chain: MVKVKFEATGEEKEVDTSKIYQVYRSGKEVLFTYDDNGKTGWGYVSEKDAPKELLDMLARAEREK
notes: Sac7d variant (Nanofitin); also called parental clone of cluster 6; Nanofitin
In the case of B5, in [4], the Kd came out at 0.00194 µM. In assay [5], the “IC50 (nM) Alternative (ELISA-based complement activation assay)” value is 700 nM and the “IC50 (nM) Classical (ELISA-based complement activation assay)” value is 743 nM. Besides, in assay [9], the Ka is 4.74e+08 M⁻¹. Besides, in [6], the “-TΔS” value came out at 97.9 kJ/mol, the Kd was 0.0021 µM, the N came out at 0.98 and the ΔG was -49.4 kJ/mol. For the same molecule, the ΔH in assay [6] was -147 kJ/mol. In assay [10], the Kd is 0.0021 µM.

B6: Fab NF-J (Fab fusion protein comprising SEQ ID NO: 58 and SEQ ID NO: 62) (other)
heavy: EVQLVESGGGLVQPGGSLRLSCAASGYDFTHYGMNWVRQAPGKGLEWVGWINTYTGEPTYAADFKRRFTFSLDTSKSTAYLQMNSLRAEDTAVYYCAKYPYYYGTSHWYFDVWGQGTLVTVSSASTKGPSVFPLAPSSKSTSGGTAALGCLVKDYFPEPVTVSWNSGALTSGVHTFPAVLQSSGLYSLSSVVTVPSSSLGTQTYICNVNHKPSNTKVDKKVEPKSCDKTHLGSGGSGSAGSGSGGSVKVKFDATGEEKEVETSKISAVYRTGKDVLFSYDDQGKIGWGYVSEKDAPKELLDLLARAERE
light: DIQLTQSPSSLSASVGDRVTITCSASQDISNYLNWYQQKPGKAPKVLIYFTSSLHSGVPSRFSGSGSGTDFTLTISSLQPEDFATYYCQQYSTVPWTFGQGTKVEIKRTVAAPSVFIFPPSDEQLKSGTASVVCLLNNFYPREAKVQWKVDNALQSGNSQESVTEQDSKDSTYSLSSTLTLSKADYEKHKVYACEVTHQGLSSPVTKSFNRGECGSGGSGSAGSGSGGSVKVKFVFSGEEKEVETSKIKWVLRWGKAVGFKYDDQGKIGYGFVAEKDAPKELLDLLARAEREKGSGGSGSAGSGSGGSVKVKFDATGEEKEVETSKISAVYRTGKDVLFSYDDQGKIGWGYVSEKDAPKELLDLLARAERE
As for B6, the Kd in assay [1] is 0.00014 µM. Also, in assay [2], the “IC50 (nM) Alternative Pathway” value turned out to be 121 nM and the “IC50 (nM) Classical Pathway” value was determined as 48 nM. In addition, the Kd in [3] is 0.0169 µM.

B7: Fab NF-F (Fab fusion protein comprising SEQ ID NO: 63 and SEQ ID NO: 35) (other)
heavy: EVQLVESGGGLVQPGGSLRLSCAASGYDFTHYGMNWVRQAPGKGLEWVGWINTYTGEPTYAADFKRRFTFSLDTSKSTAYLQMNSLRAEDTAVYYCAKYPYYYGTSHWYFDVWGQGTLVTVSSASTKGPSVFPLAPSSKSTSGGTAALGCLVKDYFPEPVTVSWNSGALTSGVHTFPAVLQSSGLYSLSSVVTVPSSSLGTQTYICNVNHKPSNTKVDKKVEPKSCDKTHLGSGGSGSAGSGSGGSVKVKFVFSGEEKEVETSKIKWVLRWGKAVGFKYDDQGKIGYGFVAEKDAPKELLDLLARAEREKGSGGSGSAGSGSGGSVKVKFDATGEEKEVETSKISAVYRTGKDVLFSYDDQGKIGWGYVSEKDAPKELLDLLARAERE
light: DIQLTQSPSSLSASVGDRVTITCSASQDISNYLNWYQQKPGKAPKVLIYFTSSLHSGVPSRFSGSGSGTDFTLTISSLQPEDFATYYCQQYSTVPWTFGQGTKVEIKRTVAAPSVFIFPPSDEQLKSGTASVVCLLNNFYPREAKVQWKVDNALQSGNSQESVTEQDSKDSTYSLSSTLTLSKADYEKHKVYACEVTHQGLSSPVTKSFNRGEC
B7 returned a Kd in [1] of 0.00409 µM. In addition, in assay [2], the “IC50 (nM) Alternative Pathway” value came to 273 nM and the “IC50 (nM) Classical Pathway” value came out at 78 nM. In addition, the Kd in assay [3] was 0.0906 µM.

B8: Fab NF-H (Fab fusion protein comprising SEQ ID NO: 63 and SEQ ID NO: 62) (other)
heavy: B7 heavy
light: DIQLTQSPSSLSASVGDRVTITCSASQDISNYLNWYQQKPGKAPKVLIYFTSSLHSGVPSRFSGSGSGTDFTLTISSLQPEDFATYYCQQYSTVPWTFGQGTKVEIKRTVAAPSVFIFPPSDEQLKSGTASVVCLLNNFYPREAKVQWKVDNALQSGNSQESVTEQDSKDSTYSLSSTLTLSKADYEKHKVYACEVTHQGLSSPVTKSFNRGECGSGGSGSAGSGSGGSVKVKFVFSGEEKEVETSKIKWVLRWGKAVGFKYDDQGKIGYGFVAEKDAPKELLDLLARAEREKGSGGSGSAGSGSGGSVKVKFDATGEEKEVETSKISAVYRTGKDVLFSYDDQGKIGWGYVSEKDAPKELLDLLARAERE
For B8, binding in [1] was put at a Kd of 0.00013 µM. For the same molecule, in assay [2], the “IC50 (nM) Alternative Pathway” value worked out at 123 nM and the “IC50 (nM) Classical Pathway” value came to 47 nM. The molecule also gave a Kd in assay [3] of 0.0001 µM.

B9: Fab NF-E (Fab fusion protein comprising SEQ ID NO: 59 and SEQ ID NO: 57) (other)
heavy: EVQLVESGGGLVQPGGSLRLSCAASGYDFTHYGMNWVRQAPGKGLEWVGWINTYTGEPTYAADFKRRFTFSLDTSKSTAYLQMNSLRAEDTAVYYCAKYPYYYGTSHWYFDVWGQGTLVTVSSASTKGPSVFPLAPSSKSTSGGTAALGCLVKDYFPEPVTVSWNSGALTSGVHTFPAVLQSSGLYSLSSVVTVPSSSLGTQTYICNVNHKPSNTKVDKKVEPKSCDKTHLGSGGSGSAGSGSGGSVKVKFVFSGEEKEVETSKIKWVLRWGKAVGFKYDDQGKIGYGFVAEKDAPKELLDLLARAERE
light: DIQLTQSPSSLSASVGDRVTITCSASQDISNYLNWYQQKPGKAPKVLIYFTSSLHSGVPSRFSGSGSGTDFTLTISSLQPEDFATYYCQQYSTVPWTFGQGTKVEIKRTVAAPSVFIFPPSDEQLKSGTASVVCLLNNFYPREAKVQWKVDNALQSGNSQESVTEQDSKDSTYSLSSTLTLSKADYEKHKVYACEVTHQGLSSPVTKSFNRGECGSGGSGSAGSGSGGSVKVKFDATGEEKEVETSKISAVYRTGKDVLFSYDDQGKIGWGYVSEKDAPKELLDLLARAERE
notes: Signal peptide cleaved off prior to secretion
Molecule B9 came in with a Kd in [1] of 0.00131 µM. Further, in assay [2], the “IC50 (nM) Alternative Pathway” value turned out to be 246 nM and the “IC50 (nM) Classical Pathway” value came to 65 nM. Binding in assay [3] was put at a Kd of 0.003 µM.
